Patent publication US6475718

Target: orphan seven transmembrane domain receptor APJ (human) (UniProt P35414)
Assay: cell-based or functional assay

UniProt P35414, sequence (P35414 whole entry I109M/F110L, the tested form may be a part): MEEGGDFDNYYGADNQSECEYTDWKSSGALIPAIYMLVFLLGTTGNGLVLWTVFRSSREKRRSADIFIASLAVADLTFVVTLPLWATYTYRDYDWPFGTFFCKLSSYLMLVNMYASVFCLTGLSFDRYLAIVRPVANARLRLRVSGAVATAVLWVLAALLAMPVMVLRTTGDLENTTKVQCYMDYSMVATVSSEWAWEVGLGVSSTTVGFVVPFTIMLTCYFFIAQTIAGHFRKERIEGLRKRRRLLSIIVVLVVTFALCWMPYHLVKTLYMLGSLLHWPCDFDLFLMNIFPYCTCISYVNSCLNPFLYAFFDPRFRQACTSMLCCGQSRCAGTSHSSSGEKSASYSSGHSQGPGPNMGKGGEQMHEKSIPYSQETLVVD

Substance: HIV-1 89.6 env protein (from UniProt Q73372 32-853)
- cell-cell fusion (luciferase activity), QT6 target cells with CD4 and APJ (% of that observed with CXCR4): > 70
